Experimental data as given in PMC6102588, “Quaternary Structure, Salt Sensitivity, and Allosteric Regulation of β-AMYLASE2 From Arabidopsis thaliana” (Frontiers in Plant Science, 2018).
Substitutions are numbered along the chain they refer to. Names may count otherwise.

B1: Arabidopsis thaliana β-AMYLASE2 (BAM2), wild type, without chloroplast transit peptide (enzyme, UniProt O65258 56-542, looked up)
chain: AESTEEDRVPIDDDDDSTDQLVDEEIVHFEERDFAGTACVPVYVMLPLGVIDMNSEVVEPEELLDQLRTLKSVNVDGVMVDCWWGIVESHTPQVYNWSGYKKLFQMIRELGLKIQVVMSFHECGGNVGDDVHIQIPEWVREIGQSNPDIYFTDSAGRRNTECLTWGIDKQRVLRGRTALEVYFDYMRSFRVEFDEFFEEKIIPEIEVGLGPCGELRYPSYPAQFGWKYPGIGEFQCYDKYLMNSLKEAAEVRGHSFWGRGPDNTETYNSTPHGTGFFRDGGDYDSYYGRFFLNWYSRVLIDHGDRVLAMANLAFEGTCIAAKLSGIHWWYKTASHAAELTAGFYNSSNRDGYGPIAAMFKKHDAALNFTCVELRTLDQHEDFPEALADPEGLVWQVLNAAWDASIPVASENALPCYDREGYNKILENAKPLTDPDGRHLSCFTYLRLNPTLMESQNFKEFERFLKRMHGEAVPDLGLAPGTQETNPE
notes: β-amylase 2 (BAM2), Arabidopsis thaliana, NP_191958.3, lacking its predicted 55 amino acid N-terminal chloroplast transit peptide; the start at residue 56 is worked out from that statement; Expression vector in pETDuet-1; Predicted monomer mass without transit peptide is 57.1 kDa; also called WT BAM2; WT; source: E. coli BL21+, purified by the N-terminal 6-His tag
B2: BAM2 F238A mutant (Interface B) (enzyme, Arabidopsis thaliana, UniProt O65258 56-542, looked up)
chain: B1 chain with F183A
notes: β-amylase 2 (BAM2), Arabidopsis thaliana, NP_191958.3, lacking its predicted 55 amino acid N-terminal chloroplast transit peptide, with Phe238 changed to Ala; Made by QuikChange mutagenesis in the WT pETDuet-1 construct (Monroe et al., 2017); also called B2_F238A; source: E. coli BL21+, purified by the N-terminal 6-His tag
B3: BAM2 W456A mutant (Interface A) (enzyme, Arabidopsis thaliana, UniProt O65258 56-542, looked up)
chain: B1 chain with W401A
notes: β-amylase 2 (BAM2), Arabidopsis thaliana, NP_191958.3, lacking its predicted 55 amino acid N-terminal chloroplast transit peptide, with Trp456 changed to Ala; Made by QuikChange mutagenesis in the WT pETDuet-1 construct (Monroe et al., 2017); also called B2_W456A; source: E. coli BL21+, purified by the N-terminal 6-His tag

How the values were obtained:
[1] = target: BAM2 N-terminal deletion mutant (NDel), lacking the acidic region (Arabidopsis thaliana) (UniProt O65258); test: SEC-MALS; proteins at 1-2 mg mL^-1 injected into a 4.6 x 300 mm size-exclusion column, 0.5 mL min^-1, 10 mM MOPS, pH 7, 250 mM KCl; masses are averages, n = 3
[2] = target: the molecule itself; test: as above

| Molecule | stoichiometry N [1] | stoichiometry N [2] |
| --- | --- | --- |
| BAM2 N-terminal deletion mutant (NDel), lacking the acidic region (from UniProt O65258 86-542) (enzyme) | 4 |  |
| B1 |  | 4 |
| B2 |  | 2 |
| B3 |  | 2 |
